Blank lines part the entries; values can stand above or below the molecule they belong to.
B2: DnaB with a C-terminal hexahistidine tag (DnaB-His; 56 kDa) (enzyme, Caulobacter crescentus, UniProt A0A0H3C7A8 1-507, looked up)
chain: MPMSLVPALDLVLPGLPEPTINVAPHNMEAEQALLGVLLYDNAAYERLSDNLQARCFYEPFHQRLFQAIETHVRKGQLAEPILLADEFKKDPAFEELGGLRYLADLVDRAPPAANVGDYARVIFDLSLRRELIRIGGDIATAAQGGNDEKRNARDQIEAAEQSLYSLAESGAASSGFVSFGDALRGAVEMTAEAYSRDGGMSGVSTDLMDLDQKIGGLHPSDLIILAGRPSMGKTALATNIAFNIAKKYAYEIQPDGTKKTVQGGVVAFYSLEMSAEQLALRMLADASGVSGDRLRKGEIDASEFGRVRDAAMELQNAPLYIDATGGISIAKLTARARRLKRQVGLDLIVVDYLQLVTGSDLGANANRVQEVSQITMGLKALAKELSVPVIALSQLSRQVEQRDDKRPQLSDLRESGSIEQDADMVWFVYREAYYVGRAEPREGTPEHLTWQEEMDRLQGLAEVIIAKQRHGPIGTVRLSFNSDTTRFGNLARDHYFAQARNIPSDE
notes: Replicative DNA helicase DnaB (CCNA_01737) of Caulobacter crescentus; Hexamer by size exclusion chromatography; Construction details are in the Supplemental Materials; also called C. crescentus DnaB; CCNA_01737; source: E. coli, purified (procedure in the Supplemental Material); not shown: His6, C-terminal, kept

Experiments:
DnaB-His = molecular target: T1, DnaB-His (Caulobacter vibrioides, UniProt A0A0H3C7A8); experiment: ATPase assay, [alpha-32P]ATP, TLC on PEI cellulose, Michaelis-Menten fit; assay type: biochemical; conditions: pH 7.5, 10 mM magnesium acetate, 30 C, 5-160 uM ATP, 8.3 nM hexamer, no DciA; labelled compound
T1 construct: gene CCNA_01737; full-length, C-terminal His6 tag kept, expressed in E. coli Rosetta 2(DE3), 56 kDa monomer, hexamer (330 kDa) from size exclusion chromatography

[1] = molecular target: B2; experiment: SEC; Superdex 200 Increase 10/300 GL; 25 mM Tris-HCl pH 7.5, 300 mM sodium chloride, 20% glycerol, 0.1 mM ATP, 5 mM magnesium chloride; 0.2 ml/min; DnaB-His 10 nmol, His-DciA 25 nmol, alone or mixed; fractions on SDS-PAGE with Coomassie staining; conditions: both partners purified
[2] = molecular target: the molecule itself; experiment: as above

Molecule: Nc1ncnc2c1ncn2[C@@H]1O[C@H](COP(=O)(O)OP(=O)(O)OP(=O)(O)O)[C@@H](O)[C@H]1O [ATP]
ATPase assay, [alpha-32P]ATP, TLC on PEI cellulose, Michaelis-Menten fit (DnaB-His): ATP hydrolysis was readily observed at various concentrations of wild-type DnaB-His

stoichiometry N [1]: 1.9 DnaB-His per His-DciA
B1: DciA with an N-terminal hexahistidine tag (His-DciA; 21 kDa) (natural protein, Caulobacter crescentus, UniProt A0A0H3C5R2 1-179, looked up)
chain: MRRPLPTPEEAIAILRSKRTKPQRRPPPPAGKNLAPLLKDLEDRFGKGPAALQARWKEIVGDTLARRTEPVRIIKGRNGEGGALELRVDGPVASLIQHQAPQITARLDMLLGKGVVTRLRIVQGPVKAPAAAPSTRLRRKPPLDAALEKQLADSLAEQPDGALKQALLKLGRGVLSSER
notes: DciA (CCNA_00380) of Caulobacter crescentus; This is surmised from the primer; construction details are in the Supplemental Materials; source: E. coli, purified (procedure in the Supplemental Material); not shown: His6, N-terminal, kept

Molecule: B2
stoichiometry N [2]: 6

From article PMC9825169, “The Caulobacter crescentus DciA promotes chromosome replication through topological loading of the DnaB replicative helicase at replication forks” (Nucleic Acids Research, 2022)
